Numbered stars: 1 amine (or outer) side, 2 acyl side, 3 side chain; on linkers, the order of the positions; unused ones are H or OH. Square brackets hold non-standard residues; d marks the D form. Side chains are listed from the residue outwards. Ends that are not written are not given here. * marks the point of attachment. C20 diacid = O=C(O)CCCCCCCCCCCCCCCCCCC(=O)*; C18 diacid = O=C(O)CCCCCCCCCCCCCCCCC(=O)*; γGlu = O=C(O)[C@H](CCC(=O)[*:2])N[*:1]; AEEA = NCCOCCOCC(=O)O; Aib = CC(C)(N)C(=O)O

Data on three molecules can be found in US20200024322A1 (Eli Lilly, published 2020).

One assay addresses T1, human GIP receptor (human, UniProt P48546 22-466).
T1 construct: whole, on cells; also called hGIPR; hGIP-R
T1 sequence (looked up): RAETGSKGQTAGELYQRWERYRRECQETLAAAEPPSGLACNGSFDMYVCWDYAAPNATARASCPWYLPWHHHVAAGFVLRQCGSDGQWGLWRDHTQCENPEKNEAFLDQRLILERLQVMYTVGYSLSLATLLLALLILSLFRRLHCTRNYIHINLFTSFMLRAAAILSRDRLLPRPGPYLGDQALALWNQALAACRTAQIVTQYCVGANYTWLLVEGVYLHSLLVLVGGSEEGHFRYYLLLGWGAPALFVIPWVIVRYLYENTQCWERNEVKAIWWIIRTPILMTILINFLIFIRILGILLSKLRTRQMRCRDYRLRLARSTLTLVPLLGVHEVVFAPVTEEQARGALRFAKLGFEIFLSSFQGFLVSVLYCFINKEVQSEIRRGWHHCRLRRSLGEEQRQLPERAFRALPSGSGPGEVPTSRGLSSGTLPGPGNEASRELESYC
Description: [125I]-GIP competition SPA, hGIPR membranes.

A further assay deals with T2, human glucagon receptor (human, UniProt P47871 26-477).
T2 construct: whole, on cells; also called hGcgR; GcgR
As to the kind of experiment: [125I]-Gcg competition SPA, hGcgR membranes.

The target of a further assay is T3, human GLP-1 receptor (human, UniProt P43220 24-463).
T3 construct: whole, on cells; also called hGLP-1R; hGLP1R
Description: [125I]-GLP-1 competition SPA, hGLP-1R membranes. The essentials: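 Kᵢ values are geometric means (SEM) over replicates run on separate days, derived from IC₅₀ of four-parameter curve fits. Buffer: HEPES 25 mM pH 7.4 with CaCl₂ 2.5 mM, MgCl₂ 1 mM, bacitracin 0.1%, TWEEN-20 0.003%, EDTA-free protease inhibitors.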

T2 sequence (P47871 26-477): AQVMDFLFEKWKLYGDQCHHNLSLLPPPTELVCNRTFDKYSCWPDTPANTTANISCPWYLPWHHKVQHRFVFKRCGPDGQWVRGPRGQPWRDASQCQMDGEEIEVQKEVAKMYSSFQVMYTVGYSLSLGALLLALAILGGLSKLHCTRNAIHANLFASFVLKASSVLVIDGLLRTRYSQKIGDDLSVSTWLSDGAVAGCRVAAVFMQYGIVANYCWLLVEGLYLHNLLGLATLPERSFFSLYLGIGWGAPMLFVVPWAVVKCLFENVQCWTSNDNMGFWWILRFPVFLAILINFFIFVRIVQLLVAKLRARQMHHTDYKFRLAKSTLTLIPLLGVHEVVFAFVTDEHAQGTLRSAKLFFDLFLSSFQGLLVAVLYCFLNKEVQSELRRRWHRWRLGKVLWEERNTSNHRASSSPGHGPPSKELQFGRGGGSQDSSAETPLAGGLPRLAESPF

B1: Example 288 (peptide)
peptide: Y[Aib]EGTFTSDYSILLDKK([AEEA-AEEA-γGlu-C20 diacid])AQ[Aib]AFIEYLIAGGPSSGAPPPS-NH2
modifications: N-terminus assumed
SMILES: CC[C@H](C)[C@H](NC(=O)[C@H](CC(C)C)NC(=O)[C@H](Cc1ccc(O)cc1)NC(=O)[C@H](CCC(=O)O)NC(=O)[C@@H](NC(=O)[C@H](Cc1ccccc1)NC(=O)[C@H](C)NC(=O)C(C)(C)NC(=O)[C@H](CCC(N)=O)NC(=O)[C@H](C)NC(=O)[C@H](CCCCNC(=O)COCCOCCNC(=O)COCCOCCNC(=O)CC[C@H](NC(=O)CCCCCCCCCCCCCCCCCCC(=O)O)C(=O)O)NC(=O)[C@H](CCCCN)NC(=O)[C@H](CC(=O)O)NC(=O)[C@H](CC(C)C)NC(=O)[C@H](CC(C)C)NC(=O)[C@@H](NC(=O)[C@H](CO)NC(=O)[C@H](Cc1ccc(O)cc1)NC(=O)[C@H](CC(=O)O)NC(=O)[C@H](CO)NC(=O)[C@@H](NC(=O)[C@H](Cc1ccccc1)NC(=O)[C@@H](NC(=O)CNC(=O)[C@H](CCC(=O)O)NC(=O)C(C)(C)NC(=O)[C@@H](N)Cc1ccc(O)cc1)[C@@H](C)O)[C@@H](C)O)[C@@H](C)CC)[C@@H](C)CC)C(=O)N[C@@H](C)C(=O)NCC(=O)NCC(=O)N1CCC[C@H]1C(=O)N[C@@H](CO)C(=O)N[C@@H](CO)C(=O)NCC(=O)N[C@@H](C)C(=O)N1CCC[C@H]1C(=O)N1CCC[C@H]1C(=O)N1CCC[C@H]1C(=O)N[C@@H](CO)C(N)=O
notes: also called GG-709
Broadly, the Ki is the dissociation constant of the complex between target and ligand, obtained from inhibition or displacement. A low value points to a stronger hold on the target. With B1, the inhibition constant Ki in the assay with human GIP receptor turned out to be 0.058 nM; in the assay with human glucagon receptor it was 345 nM; in the assay with human GLP-1 receptor it was 1.6 nM.

B2: Example 267 (peptide)
peptide: Y[Aib]EGTFTSDYSILLDKK([AEEA-AEEA-γGlu-C18 diacid])AQ[Aib]AFIEYLIEGG-NH2
modifications: N-terminus assumed
SMILES: CC[C@H](C)[C@H](NC(=O)[C@H](CC(C)C)NC(=O)[C@H](Cc1ccc(O)cc1)NC(=O)[C@H](CCC(=O)O)NC(=O)[C@@H](NC(=O)[C@H](Cc1ccccc1)NC(=O)[C@H](C)NC(=O)C(C)(C)NC(=O)[C@H](CCC(N)=O)NC(=O)[C@H](C)NC(=O)[C@H](CCCCNC(=O)COCCOCCNC(=O)COCCOCCNC(=O)CC[C@H](NC(=O)CCCCCCCCCCCCCCCCC(=O)O)C(=O)O)NC(=O)[C@H](CCCCN)NC(=O)[C@H](CC(=O)O)NC(=O)[C@H](CC(C)C)NC(=O)[C@H](CC(C)C)NC(=O)[C@@H](NC(=O)[C@H](CO)NC(=O)[C@H](Cc1ccc(O)cc1)NC(=O)[C@H](CC(=O)O)NC(=O)[C@H](CO)NC(=O)[C@@H](NC(=O)[C@H](Cc1ccccc1)NC(=O)[C@@H](NC(=O)CNC(=O)[C@H](CCC(=O)O)NC(=O)C(C)(C)NC(=O)[C@@H](N)Cc1ccc(O)cc1)[C@@H](C)O)[C@@H](C)O)[C@@H](C)CC)[C@@H](C)CC)C(=O)N[C@@H](CCC(=O)O)C(=O)NCC(=O)NCC(N)=O
Regarding B2, the results for the Ki with human GIP receptor, with human glucagon receptor and in the assay with human GLP-1 receptor were 0.0628 nM, 349 nM and 1.57 nM, respectively.

B3: Example 273 (peptide)
peptide: Y[Aib]EGTFTSDYSILLDKK([AEEA-AEEA-γGlu-C18 diacid])AQ[Aib]AFIEYLIAGG-NH2
modifications: N-terminus assumed
SMILES: CC[C@H](C)[C@H](NC(=O)[C@H](CC(C)C)NC(=O)[C@H](Cc1ccc(O)cc1)NC(=O)[C@H](CCC(=O)O)NC(=O)[C@@H](NC(=O)[C@H](Cc1ccccc1)NC(=O)[C@H](C)NC(=O)C(C)(C)NC(=O)[C@H](CCC(N)=O)NC(=O)[C@H](C)NC(=O)[C@H](CCCCNC(=O)COCCOCCNC(=O)COCCOCCNC(=O)CC[C@H](NC(=O)CCCCCCCCCCCCCCCCC(=O)O)C(=O)O)NC(=O)[C@H](CCCCN)NC(=O)[C@H](CC(=O)O)NC(=O)[C@H](CC(C)C)NC(=O)[C@H](CC(C)C)NC(=O)[C@@H](NC(=O)[C@H](CO)NC(=O)[C@H](Cc1ccc(O)cc1)NC(=O)[C@H](CC(=O)O)NC(=O)[C@H](CO)NC(=O)[C@@H](NC(=O)[C@H](Cc1ccccc1)NC(=O)[C@@H](NC(=O)CNC(=O)[C@H](CCC(=O)O)NC(=O)C(C)(C)NC(=O)[C@@H](N)Cc1ccc(O)cc1)[C@@H](C)O)[C@@H](C)O)[C@@H](C)CC)[C@@H](C)CC)C(=O)N[C@@H](C)C(=O)NCC(=O)NCC(N)=O
In the case of B3, the inhibition constant (Ki) came to 0.0698 nM with human GIP receptor, 724 nM with human glucagon receptor and 1.13 nM in the assay with human GLP-1 receptor.
